Experiment in all cases: SPR
For orientation: In SPR one partner is held on a chip, and binding of the other changes the refractive index at the surface.

Experiment [1] concerns the target human tau protein isoform 2N4R (human, UniProt P10636-8 1-441).
Experiment [2] addresses human tau protein isoform 2N3R (human, UniProt P10636-5 1-410).
Experiment [3] addresses mis-disordered tau 151-391/3R (human, UniProt P10636-5 151-391).
Experiment [4] deals with mis-disordered tau protein 151-391/4R (human, UniProt P10636-8 151-391).
Sequence of mis-disordered tau protein 151-391/4R (P10636 468-708): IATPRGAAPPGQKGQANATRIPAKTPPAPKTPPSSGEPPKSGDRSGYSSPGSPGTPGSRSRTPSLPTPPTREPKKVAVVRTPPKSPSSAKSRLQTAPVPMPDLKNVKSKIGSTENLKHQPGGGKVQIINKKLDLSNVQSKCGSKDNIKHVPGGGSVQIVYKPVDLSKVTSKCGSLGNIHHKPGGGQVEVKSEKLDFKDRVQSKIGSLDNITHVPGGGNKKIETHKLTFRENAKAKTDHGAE

Consider 1 molecule from article PMC4255369 (2014).

Sequence of mis-disordered tau 151-391/3R (P10636 other isoform, or with tags, fused parts or gaps): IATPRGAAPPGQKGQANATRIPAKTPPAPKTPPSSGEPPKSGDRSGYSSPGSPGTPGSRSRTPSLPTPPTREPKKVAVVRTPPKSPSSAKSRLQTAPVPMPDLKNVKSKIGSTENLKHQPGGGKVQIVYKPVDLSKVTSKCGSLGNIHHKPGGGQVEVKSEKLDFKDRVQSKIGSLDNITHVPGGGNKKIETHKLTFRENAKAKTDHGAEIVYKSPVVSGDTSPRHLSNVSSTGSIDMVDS
Sequence of human tau protein isoform 2N3R (P10636 other isoform, or with tags, fused parts or gaps): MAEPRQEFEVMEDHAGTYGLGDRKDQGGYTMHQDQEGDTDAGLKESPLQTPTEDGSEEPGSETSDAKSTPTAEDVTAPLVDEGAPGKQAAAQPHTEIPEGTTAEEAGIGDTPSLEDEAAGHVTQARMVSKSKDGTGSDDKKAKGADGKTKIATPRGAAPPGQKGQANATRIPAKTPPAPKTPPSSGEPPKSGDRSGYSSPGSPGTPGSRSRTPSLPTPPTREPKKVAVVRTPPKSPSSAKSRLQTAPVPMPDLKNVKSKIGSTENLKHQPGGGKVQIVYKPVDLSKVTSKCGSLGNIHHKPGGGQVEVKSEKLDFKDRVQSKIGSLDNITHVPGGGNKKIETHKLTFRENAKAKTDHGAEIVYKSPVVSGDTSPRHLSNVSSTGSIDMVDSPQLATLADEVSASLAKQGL
Sequence of human tau protein isoform 2N4R (P10636 other isoform, or with tags, fused parts or gaps): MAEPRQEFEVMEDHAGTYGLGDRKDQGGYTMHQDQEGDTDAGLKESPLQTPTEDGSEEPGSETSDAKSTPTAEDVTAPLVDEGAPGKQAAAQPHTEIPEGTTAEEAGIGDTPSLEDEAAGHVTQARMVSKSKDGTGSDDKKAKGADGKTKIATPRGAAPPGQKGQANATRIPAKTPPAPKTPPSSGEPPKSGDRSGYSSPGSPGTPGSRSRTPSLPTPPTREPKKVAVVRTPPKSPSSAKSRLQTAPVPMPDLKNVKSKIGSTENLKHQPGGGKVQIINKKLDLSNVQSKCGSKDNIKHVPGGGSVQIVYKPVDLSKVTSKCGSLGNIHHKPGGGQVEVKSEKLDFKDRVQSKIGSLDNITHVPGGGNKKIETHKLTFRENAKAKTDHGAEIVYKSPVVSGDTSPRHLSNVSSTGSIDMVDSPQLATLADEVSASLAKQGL

B1: monoclonal antibody DC8E8 (antibody, V domains shown)
VH: QVQLQQSGPELVKPGTSVKMPCKASGYIFTDYVISWVKQRTGQGLEWIGEIFPRSGSTYYNEKFKGKATLTADKSSNTAYMQLSSVTSEDSAVYFCARDYYGTSFAMDYWGQGTSVTVSS
VL: DIVMSQSPSSLAVSAGEKVTMSCKSSQSLLNSRTRKNYLAWYQQKPGQSPKLLIYWASTRESGVPDRFTGSGSGTDFTLTISSVQAEDLAVYYCKQSFYLRTFGGGTKLDIK
Regarding B1, the Ka in experiment [1] turned out to be 1.1e+07 M⁻¹; in experiment [2] it was 80000 M⁻¹; in experiment [3] it was 1.9e+06 M⁻¹; in experiment [4], 7.3e+07 M⁻¹.
